Measured values reported in US12065673B2, “Method for obtaining human brown/beige adipocytes” (ETABLISSEMENT FRANCAIS DU SANG, priority 2015, dated 2024).

B1: BMP7: recombinant human BMP7 (RnD system's), pro-beige/brown adipocyte factor (protein, UniProt P18075 293-431, looked up)
Bone morphogenetic protein 7: STGSKQRSQNRSKTPKNQEALRMANVAENSSSDQRQACKKHELYVSFRDLGWQDWIIAPEGYAAYYCEGECAFPLNSYMNATNHAIVQTLVHFINPETVPKPCCAPTQLNAISVLYFDDSSNVILKKYRNMVVRACGCH
B2: Bone Morphogenetic Protein 4 (protein, UniProt P12644 293-408, looked up)
Bone morphogenetic protein 4: SPKHHSQRARKKNKNCRRHSLYVDFSDVGWNDWIVAPPGYQAFYCHGDCPFPLADHLNSTNHAIVQTLVNSVNSSIPKACCVPTELSAISMLYLDEYDKVVLKNYQEMVVEGCGCR
notes: recombinant human Bone Morphogenetic Protein 4 (Miltenyi), adipogenic/browning agent

Key:
Format in all cases: cell-based, human
[1] = test system: adipogenic progenitor cells (pAdSCs); experiment: Adipogenic differentiation after BMP induction (QRT-PCR adipocyte markers, Oil red O); settings: 50 ng/mL BMP for 3 days, recovered at day 10
Description: Total RNA was extracted from ASCs and purified by AllPrep DNA/RNA/Protein kit (Qiagen, Courtaboeuf, France) and dosed by nanodrop (Thermo Fischer, Courtaboeuf, France). RNA purity and integrity was checked using the Experion™ RNA Std Sens Reagents on the Experion automatisated system (Biorad). […] The reverse transcription (RT) was performed on 1 μg RNA by using high capacity cDNA reverse transcription kit (Applied Biosystem ™) and random hexamers in a final volume of 20 μL. The oligonucleotides for each target of interest, designed by using Primer Express software (PerkinElmer Life Sciences, Waltham, Mass.) were used (forward and reverse) and listed in table1. Quantitative PCR was performed on diluted cDNA (equivalent to 25 ng of starting purified RNA) using SSoFast EvaGreen Supermix (Biorad, Marnes-la-Coquette, France) with 500 nM of forward and reverse primers in a total volume of 20 μL on a CFX™ Real Time System (Biorad) following: 95° C., 3 minutes and 40 cycles of denaturation (95° C., 10 seconds) and primers hybridation and amplification (60° C., 30 seconds). […] Melt curves and appropriate No RT control were used to validate amplification specificity. Data were analysed on Bio-Rad CFX manager (threshold=0.2), exported to DataAssist Software v3.0 (Applied Biosystems). […] All real-time PCR reactions for the individual samples were performed in duplicate. […]

standard ASCs = experiment: Osteoblastic marker expression after BMP induction; settings: 50 ng/mL BMP for 3 days
[2] = test system: adipogenic progenitor cells (pAdSCs); experiment: Brown/beige marker UCP1 by western blotting and immuno-fluorescence; settings: adipocytes from adipogenic progenitor cells; for UCP1 induction at protein level: western blotting and immuno-fluorescence
Description: Proteins which were extracted by AllPrep DNA/RNA/Protein kit (Qiagen, Courtaboeuf, France) were subjected to the Western blot analysis. Briefly, eluate from DNA and RNA retention columns was precipitated by APP buffer (v/v), centrifuged (10,000 g, 10 min), washed by ethanol 70%, and air dried. Pellets were dissolved in ALO buffer (Qiagen, Courtaboeuf, France), sonicated and protein content was determined by Bicinchoninic Acid method (Pierce). After denaturation (95° C., 5 min), proteins were separated by 12% Tris-glycine-SDS polyacrylamide gel electrophoresis, and subsequently transferred to polyvinylidene difluoride membrane (PVDF). The proteins were detected with Rabbit polyclonal Ab anti-human SOX2 (ab97959; Abcam, Cambridge, UK), anti-human OCT4 (ab19857, Abcam), anti-human NANOG (SC33759; SantaCruz, Dallas, Tex.), anti-human PRDM16, anti-human UCP1, or with Mouse monoclonal Ab anti-human PPARG, anti-βActin and anti-RUNX2 (Abcam) antibodies. […] The Pactin was used as internal positive control (Sigma).
After expansion, ASC- or EGM-2-derived cells were also cultured in chamber slides and after becoming confluent, cells were induced to differentiate into brown/beige adipocytes. After 7 days, the cells were stained with anti-UCP1 antibody (Alpha Diagnostic, San-Antonio, Tex.), and then with Alexa488-labeled goat anti-mouse secondary antibody (Invitrogen). The staining was read by using confocal microscope (Zeiss 510, Zeiss, Oberkochen, Germany).

[3] = test system: EGM2-derived Bone Marrow-MSCs; experiment: BMP7-induced differentiation of BM-MSCs (QRT-PCR)
[4] = test system: MSCs cultured in standard conditions; experiment: BMP7-induced differentiation of BM-MSCs cultured in standard conditions; settings: BMP7 treatment

Molecule | adipocyte generation after BMP treatment [1] | osteoblastic marker expression after BMP treatment (standard ASCs) | UCP1 induction, BMP7 compared with BMP4 [2] | UCP1 induction at protein level [2] | expression of adipogenic and brown/beige genes (UCP1, CIDEA) [3] | differentiation outcome of MSCs [4]
B1 | generated clearly defined adipocytes | expressed high levels of osteoblastic markers | more potent and reliable | strongly induced | triggered expressions of adipogenic and UCP1, CIDEA genes | differentiate into osteoblastic cells solely
B2 | generated clearly defined adipocytes | expressed high levels of osteoblastic markers |  | strongly induced |  | 
